In US9926375B2, “Anti-endoglin antibodies and uses thereof” (Tracon Pharmaceuticals, Inc., priority 2014, dated 2018):

T1: human CD105 (Homo sapiens, UniProt P17813)
T1 construct: purchased R&D Systems 1097-EN
T1 sequence (P17813 26-586 limits assumed): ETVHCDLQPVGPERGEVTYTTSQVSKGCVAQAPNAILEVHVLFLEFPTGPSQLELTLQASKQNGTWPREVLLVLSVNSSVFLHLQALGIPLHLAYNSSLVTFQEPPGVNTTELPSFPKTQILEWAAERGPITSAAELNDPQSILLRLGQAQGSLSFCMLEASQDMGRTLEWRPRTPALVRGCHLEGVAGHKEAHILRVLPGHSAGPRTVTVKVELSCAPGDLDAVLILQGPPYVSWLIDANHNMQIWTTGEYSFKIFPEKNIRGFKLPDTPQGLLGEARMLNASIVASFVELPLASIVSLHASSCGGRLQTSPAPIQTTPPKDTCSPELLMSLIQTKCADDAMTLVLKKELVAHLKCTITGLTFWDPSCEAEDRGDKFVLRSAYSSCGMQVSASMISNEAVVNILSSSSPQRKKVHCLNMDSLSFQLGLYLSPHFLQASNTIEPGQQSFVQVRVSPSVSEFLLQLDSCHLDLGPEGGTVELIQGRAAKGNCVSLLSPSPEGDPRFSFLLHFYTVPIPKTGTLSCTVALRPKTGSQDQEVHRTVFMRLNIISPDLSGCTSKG

T2: human endoglin (Homo sapiens, UniProt P17813)
T2 sequence (P17813 26-658): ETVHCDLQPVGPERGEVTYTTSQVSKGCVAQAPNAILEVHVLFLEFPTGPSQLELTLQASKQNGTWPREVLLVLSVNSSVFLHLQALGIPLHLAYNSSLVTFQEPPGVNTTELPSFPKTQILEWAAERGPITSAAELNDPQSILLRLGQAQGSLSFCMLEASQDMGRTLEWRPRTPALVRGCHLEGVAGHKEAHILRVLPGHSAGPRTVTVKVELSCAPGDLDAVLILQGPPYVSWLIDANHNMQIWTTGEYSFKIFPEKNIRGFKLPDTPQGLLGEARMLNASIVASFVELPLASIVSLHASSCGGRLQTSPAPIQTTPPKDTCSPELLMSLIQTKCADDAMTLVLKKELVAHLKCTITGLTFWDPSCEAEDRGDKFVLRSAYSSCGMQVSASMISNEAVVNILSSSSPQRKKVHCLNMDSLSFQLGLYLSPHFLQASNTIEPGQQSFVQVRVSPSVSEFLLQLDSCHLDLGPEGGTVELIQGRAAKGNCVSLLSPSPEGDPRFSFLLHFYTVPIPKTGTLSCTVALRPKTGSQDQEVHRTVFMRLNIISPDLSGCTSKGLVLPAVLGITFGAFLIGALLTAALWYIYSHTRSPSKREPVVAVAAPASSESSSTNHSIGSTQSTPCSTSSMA

B1: VK1AAVH1A2: humanized/deimmunized anti-endoglin IgG1; light chain SEQ ID NO: 93 (VK1AA), heavy chain SEQ ID NO: 89 (VH1A2) (antibody, V domains shown)
VH: EVQLVESGGGLVKPGGSLRLSCAASGFTFSDAWMDWVRQAPGKGLEWVGEARSKASNHATYYAESVKGRFTISRDDSKNTLYLQMNSLKTEDTAVYYCTRWRRFFDSWGQGTLVTVSS
VL: DIQMTQSPSSLSASVGDRATITCRASSSVSYMHWYQQKPGKAPKPWAYATSNLASGVPSRFSGSGSGTDYTLTISSLQPEDFATYYCQQWSSNPLTFGGGTKVEIK

Legend:
human CD105 = target: T1, human CD105; assay: Competition ELISA against biotinylated TRC205 antibody for binding to human CD105; settings: biotinylated TRC205 55 ng/ml
Protocol: After washing three times with PBST, a three-fold dilution series of either human BMP9 (R&D Systems Cat. No. 3209-BP-010) (413 nM to 0.56 nM), or unlabelled TRC205 antibody (40 nM to 0.05 nM) or a single concentration of an irrelevant antibody (66 nM) was mixed with a fixed concentration of biotinylated TRC205 antibody (55 ng/ml) and added to the plate. Following incubation for 1 hour at room temperature, the plate was washed three times with PBST and binding of the biotinylated TRC205 antibody was detected using streptavidin-HRP (Sigma Cat. No. 55512) and TMB substrate (Sigma Cat. No. T0440). OD450 nm values were measured on a Dynex MRX TCII plate reader.

human endoglin = target: T2, human endoglin; assay: BIAcore (surface plasmon resonance) analysis of anti-endoglin antibody binding; settings: antibody captured on protein A chip, 25 degrees Celsius
Protocol: Affinity of antibodies can be assessed using, for example, BIAcore analysis using standard protocols. Briefly, protein A is chemically coupled to a BIAcore CM5 chip, with the amount of protein A immobilized corresponding to 2000 RU. Subsequent steps are performed in a running buffer of 10 mM HEPES, 150 mM NaCl, 3 mM EDTA, 0.05% TWEEN, pH=7.4, at 25 degrees Celsius using a 10 Hz data collection rate. Anti-endoglin antibody (10 nM) is captured at a 10 μL/min flow rate by the immobilized protein A on the BIAcore chip: typically, capture times of 20, 40 and 80 seconds allow the capture of antibody densities corresponding to 130 RU, 330 RU and 570 RU, respectively. Start-up cycles are performed using running buffer at a flow rate of 40 μL/min, a contact time of 90 seconds and a dissociation time of 90 seconds. Sample cycles are performed using recombinant endoglin at concentrations ranging from 0 to 40 nM. Endoglin is passed over the BIAcore chip containing captured antibody at a flow rate of 40 μL/min with a contact time of 525 seconds and dissociation time of 2500 seconds. Eight sample cycles are typically performed at each antibody capture density. Regeneration of the chip is accomplished using 10 mM glycine pH=1.7. Data analysis is performed using BIAcore T100 Evaluation Software v1.1 Signals generated using BIAcore chips with different captured antibody densities are compared and data generated in the absence of recombinant endoglin are used to adjust for the intraassay blank signal. For fitting of the data, the Rmax is allowed to float to account for variation in capture levels of each antibody in each cycle. Data from each capture density is fitted simultaneously during analysis of each antibody. BIAcore data are presented in Table 2 for chimeric, humanized and deimmunized anti-endoglin antibodies, including ka (1/Ms), kd (1/s), KD (M) and Chi^2 (RU^2).

[1] = system: peripheral blood mononuclear cells (PBMCs); assay: EpiScreen time course T cell proliferation assay with intact anti-endoglin antibodies; assay type: cell-based, human; settings: of 20 donors; 50 μg/mL antibody; SI≥2 (borderline ≥1.90), p<0.05
Text: This example describes a method of screening anti-endoglin antibodies for T-cell epitopes. The interaction between MHC, polypeptide and T cell receptor (TCR) provides the structural basis for the antigen specificity of T cell recognition. T cell proliferation assays test the binding of polypeptides processed from antibodies to MHC and the recognition of MHC/polypeptide complexes by the TCR. In vitro T cell proliferation assays of the present example, involve the stimulation of peripheral blood mononuclear cells (PBMCs), containing antigen presenting cells (APCs) and T cells. Stimulation is conducted in vitro using intact anti-endoglin antibodies. Stimulated T cell proliferation is measured using ^3H-thymidine (^3H-Thy) and the presence of incorporated ^3H-Thymidine is assessed using scintillation counting of washed fixed cells.
Anti-endoglin antibodies were purified from the supernatants of mammalian cultures by protein A chromatography. Buffer exchange and protein concentration was done using PBS pH=7.4. Anti-endoglin antibody was further purified by size exclusion chromatography using a Sephacryl S200 column (GE Healthcare, AMersham, UK). The major peak is collected, filter sterilized and shown to have endotoxin levels <5 EU/mg using an Endosafe-PTS (Charles River, Margate, UK). The purified antibodies are stored at 4 degrees Celsius. Final concentrations were determined by UV absorption using calculated molar extinction coefficients, where A280 1.0=1.62 mg/mL. Each antibody was then diluted to 100 μg/mL in AIMV culture medium.
Peripheral Blood Mononuclear cells (PBMC) are isolated from healthy community donor buffy coats (from blood drawn within 24 hours) which are obtained from the UK National Blood Transfusion Service (Addenbrooke's Hospital, Cambridge, UK) according to approval granted by Addenbrooke's Hospital Local Research Ethics Committee. PBMC are isolated from buffy coats by Lymphoprep (Axis-shield, Dundee, Scotland) density centrifugation and CD8+ T cells are depleted using CD8+ RossetteSep™ (StemCell Technologies, Inc.). Donors are characterized by identifying HLA-DR haplotypes using a Biotest HLA SSP-PCR based tissue-typing kit (Biotest, Landsteinerstralβe, […]). T cell responses to a control antigen, Keyhole Limpet Haemocyanin (KLH) (Pierce, Rockford, Ill., USA) are determined for a positive control. PBMC were then frozen and stored in liquid nitrogen until required. When required for use, cells are thawed rapidly in a water bath at 37° C. before transferring to 10 ml pre-warmed AIM V medium.
A cohort of 20 donors is selected to best represent the number and frequency of HLA-DR allotypes expressed in the world population. […]
PBMCs from each donor are thawed, counted and viability assessed. […]

Molecule | IC50 of competition with biotinylated TRC205 antibody (human CD105) [µg/mL] | ka (human endoglin) [M⁻¹ s⁻¹] | kd (human endoglin) [s⁻¹] | Donors with positive T cell proliferation responses [1]
BMP9: human BMP9 (R&D Systems Cat. No. 3209-BP-010), endoglin ligand [reference compound] | 0.35 |  |  | 
B1 |  | 46000 | 3.25e-05 | none of the donors in the study cohort responded positively
